Reference: publication PMC8748658

Target: L1-70-Myc
Experiment: ELISA; purified L1-70-Myc coated in PBS on 96-well plates; purified Top1-HA at 0.1, 0.5, 1, 5 and 10 nM, 2 h at 37 °C; detection with rabbit anti-HA, TMB

B1: Top1-HA (enzyme)
chain: MSGDHLHNDSQIEADFRLNDSHKHKDKHKDREHRHKEHKKDKDKDREKSKHSNSEHKDSEKKHKEKEKTKHKDGSSEKHKDKHKDRDKERRKEEKIRAAGDAKIKKEKENGFSSPPRIKDEPEDDGYFAPPKEDIKPLKRLRDEDDADYKPKKIKTEDIKKEKKRKSEEEEDGKLKKPKNKDKDKKVAEPDNKKKKPKKEEEQKWKWWEEERYPEGIKWKFLEHKGPVFAPPYEPLPESVKFYYDGKVMKLSPKAEEVATFFAKMLDHEYTTKEIFRKNFFKDWRKEMTNDEKNTITNLSKCDFTQMSQYFKAQSEARKQMSKEEKLKIKEENEKLLKEYGFCVMDNHRERIANFKIEPPGLFRGRGNHPKMGMLKRRIMPEDIIINCSKDAKVPSPPPGHKWKEVRHDNKVTWLVSWTENIQGSIKYIMLNPSSRIKGEKDWQKYETARRLKKCVDKIRNQYREDWKSKEMKVRQRAVALYFIDKLALRAGNEKEEGETADTVGCCSLRVEHINLHPELDGQEYVVEFDFPGKDSIRYYNKVPVEKRVFKNLQLFMENKQPEDDLFDRLNTGILNKHLQDLMEGLTAKVFRTYNASITLQQQLKELTAPDENVPAKILSYNRANRAVAILCNHQRAPPKTFEKSMMNLQSKIDAKKDQLADARRDLKSAKADAKVMKDAKTKKVVESKKKAVQRLEEQLMKLEVQATDREENKQIALGTSKLNYLDPRITVAWCKKWGVPIEKIYNKTQREKFAWAIDMTDEDYEF
- concentration of Top1-HA at saturation: 1 nM
